Reference: patent US11180762B2, “Methods and compositions for the treatment of cancer” (CHILDREN'S MEDICAL CENTER CORPORATION, priority 2014, dated 2021)
“Also recorded” adds a separate entry of the source.

B1: EpCAM-AsiC: EpCAM aptamer-siRNA chimera, siRNA cargo not specified at the place; 2'-fluoropyrimidines, 3'-dTdT (nucleic acid)
sense: GCGACUGGUUACCCGGUCGUUUUGAAGAAGAUCACCCUCCUUATT
antisense: UAAGGAGGGUGAUCUUCUUCATT
modifications: DNA at T, 2'-fluoro at CU, RNA at AG, backbone not given here; further chemistry not fully specified
notes: EpCAM aptamer-siRNA chimera, siRNA cargo not specified at the place; 2'-fluoropyrimidines, 3'-dTdT
B2: PLK1 EpCAM-AsiC: EpCAM aptamer linked by U-U-U to PLK1 siRNA sense strand (SEQ ID NO: 1), annealed to antisense strand (SEQ ID NO: 2) (nucleic acid)
sense: GCGACUGGUUACCCGGUCGUUUUGAAGAAGAUCACCCUCCUUATT
antisense: UAAGGAGGGUGAUCUUCUUCATT
modifications: DNA at T, 2'-fluoro at CU, RNA at AG, backbone not given here; EpCAM aptamer fused to sense strand

Legend:
[1] = Stability in human serum (denaturing PAGE, densitometry); format: in vitro ADME; details: 2'-fluoropyrimidine AsiC
Experimental: Aliquots were removed at regular intervals and resuspended in gel loading buffer and stored at −80° C. before electrophoresis on denaturing PAGE gels. The average intensity (+S.E.M.) of bands from 2 independent experiments quantified by densitometry after staining is shown.
EpCAM-AsiC targeting GFP synthesized using 2′-fluoro-pyrimidines, chemically-stabilized 21-mer cholesterol-conjugated GFP-siRNAs (chol-siRNA), and unmodified 21-mer GFP-siRNA, each in 100 ul PBS, which were added to 100 μl of human or mouse serum. At regular intervals, 20 μL was removed, and resuspended in gel loading buffer and frozen at −80° C. before being electrophoresed on a denaturing PAGE gel. FIG. 30A depicts representative PAGE gels and FIG. 30B depicts graphs of the average intensity (+S.E.M.) of bands from two independent experiments analyzed by densitometry. Both the stabilized cholesterol-conjugated siRNA and the EpCAM-AsiC are stable over the 36 h of the experiment.

[2] = Serum stability, serum species not stated; format: in vitro ADME; details: 2'-fluoropyrimidine AsiC
[3] = test system: basal-A, luminal and basal-B breast cancer cell lines; experiment: Cell proliferation/viability by CellTiter-Glo in 10 breast cancer cell lines; format: cell-based, human
Excerpt: To explore whether EpCAM-AsiCs could be used as anti-tumor agents in breast cancer, we examined by CellTiterGlo assay the effect of AsiCs directed against PLK1, a kinase required for mitosis, on survival of 10 breast cancer cell lines that included 5 basal-A TNBCs, 2 luminal cell lines, and 3 basal-B TNBCs. […] The anti-proliferative effect strongly correlated with EpCAM expression (FIG. 2B). The reduction in viable EpCAM+ cells after knockdown was due to induction of apoptosis, assessed by annexin V-propidium iodide staining and caspase activation (data not shown). To determine whether ligation of the EpCAM aptamer contributed to the anti-proliferative effect of the EpCAM-AsiC, we compared survival of cells that were treated with the PLK1 EpCAM-AsiC with cells treated with the aptamer on its own (FIG. 2C). […] Thus the PLK1 EpCAM-AsiC asserts its specific anti-tumor effect on EpCAM+ breast cancer cells by gene knockdown.
For uptake and silencing treatment, cells were plated at low density (10,000 cells/well in 96-well plates) and treated immediately. All AsiC and siRNA treatments were performed in either OptiMEM or WIT medium. Cell viability was assessed by CellTiter-Glo (Promega) or by Trypan-Blue staining in 96-well plates.

MCF10CA1a (CA1a) tumor = experiment: MCF10CA1a tumor growth, AsiC injected sc near the tumor; format: in vivo, mice; details: luminescent photon flux, N=4
Experimental: The top panel depicts the experimental scheme. In this experiment the AsiCs were injected sc in the flank near the tumor, but not into the tumor. The bottom panel depicts a graph of Log2 total luminescent photon flux of the tumors (N=4); *, P<0.05 by Student's t-test.

[4] = test system: basal-B TNBC cells (MB436, MB231); experiment: Tumor initiation by ex vivo treated EpCAM− basal-B cells in nude mice; details: cells treated ex vivo overnight, then implanted; listed as PLK1 EpCAM-AsiCs
Excerpt: EpCAM was chosen for targeting in part because EpCAM marks T-ICs and metastasis-initiating cells (M-IC).^20,22,26,27,31 To investigate whether EpCAM-AsiCs inhibit T-ICs, we compared colony and mammosphere formation (T-IC functional surrogate assays) after mock treatment, treatment with paclitaxel or with EpCAM-AsiCs against eGFP or PLK1. […] T-IC inhibition was specific, since eGFP AsiCs had no effect. […] To evaluate the effect of EpCAM-AsiCs on tumor initiation, EpCAM+MB468 cells stably expressing luciferase were treated overnight with medium or PLK1 or eGFP EpCAM-AsiCs and equal numbers of viable cells were then implanted sc in nude mice. […] Thus PLK1 EpCAM-AsiCs inhibit in vitro T-IC assays and tumor initiation selectively for EpCAM+ breast cancers.
EpCAM-AsiCs inhibit T-ICs of EpCAM+ tumors. EpCAM was chosen for targeting partly because EpCAM marks T-ICs and metastasis-initiating cells (M-IC). To investigate whether EpCAM-AsiCs inhibit T-ICs, we compared colony and mammosphere formation (T-IC functional surrogates) after mock treatment, treatment with paclitaxel or with EpCAM-AsiCs against eGFP or PLK1. […] To evaluate EpCAM-AsiC's effect on tumor initiation, viable luc+ EpCAM+ MB468 and EpCAM− MB231 cells, treated overnight with medium or PLK1 or GFP EpCAM-AsiCs, were implanted sc in nude mice. […] Thus EpCAM-AsiCs inhibit tumor initiation in EpCAM+ breast cancers.

breast cancer cell lines = experiment: Sphere (mammosphere) formation assay; format: cell-based, human
Experimental: For colony formation assay, 1,000 viable cells were treated for 6 h in round bottom 96-well plates and then transferred to 10-cm plates in serum-containing medium. Medium was replaced every 3 d. After 8-14 d, cells were fixed in methanol (−20 C) and stained with crystal violet. For sphere formation assay, 1,000/ml viable cells were treated for 6 h in round bottom 96-well plates and then cultured in suspension in serum-free DMEM/F12 1:1 (Invitrogen), supplemented with EGF (20 ng/ml, BD Biosciences), B27 (1:50, Invitrogen), 0.4% bovine serum albumin (Sigma) and 4 μg/ml insulin (Sigma). Spheres were counted after 1 or 2 weeks.

[5] = listed as EpCAM-AsiC targeting PLK1
[6] = listed as EpCAM-AsiCs targeting PLK1

Molecule	T1/2 in human serum [1] [h]	serum T1/2 [2] [h]	cell proliferation/viability, basal-A and luminal (EpCAM+) lines [3, 5]	cell proliferation/viability, basal-B lines [3, 5]	cell proliferation/viability, basal-A and luminal (EpCAM+) lines [3, 6]	cell proliferation/viability, basal-B lines [3, 6]	MCF10CA1a tumor growth (MCF10CA1a (CA1a) tumor)	tumor initiation, EpCAM− basal-B cells [4]	sphere/mammosphere formation, EpCAM+ basal-A and luminal lines (breast cancer cell lines; [5])	sphere/mammosphere formation, EpCAM− basal-B lines (breast cancer cell lines; [5])	sphere/mammosphere formation, EpCAM+ basal-A and luminal lines (breast cancer cell lines; listed as PLK1 EpCAM-AsiCs)	sphere/mammosphere formation, EpCAM− basal-B lines (breast cancer cell lines; listed as PLK1 EpCAM-AsiCs)
B1	> 36	> 72										
B2			displayed a decrease in cell viability; also recorded: decreased cell proliferation in both basal A and luminal cell lines; also recorded: suppressed cell viability in basal A and luminal cell lines	having no effect on basal B cells	decreased cell proliferation	did not inhibit basal-B cells	suppresses MCF10CA1a (CA1a) tumor growth	had no effect on basal-B TNBC tumor initiation; also recorded: only in EpCAM+ tumors	specifically inhibited sphere formation in basal A and luminal; also recorded: decreased the number of spheres only in basal A and luminal cells	had no effect on basal B cells	more strongly inhibited colony and mammosphere formation of EpCAM+ basal-A TNBCs and luminal cell lines than paclitaxel; also recorded: eliminated mammosphere and colony formation; also recorded: more strongly inhibited colony and mammosphere formation of multiple EpCAM+ basal-like TNBCs and a luminal cell line than paclitaxel	inactive against EpCAM− basal-B TNBCs
